# Measured values as given in patent US20230391858A1 (ANNEXON, published 2023).
# B1: FabA, anti-C1q antibody Fab fragment comprising heavy chain Fab fragment of SEQ ID NO: 39 and light chain Fab fragment of SEQ ID NO: 40 (Fab)
# heavy: QVQLVQSGAELKKPGASVKVSCKSSGYHFTSYWMHWVKQAPGQGLEWIGVIHPNSGSINYNEKFESRVTITVDKSTSTAYMELSSLRSEDTAVYYCAGERDSTEVLPMDYWGQGTTVTVSSASTKGPSVFPLAPSSKSTSGGTAALGCLVKDYFPEPVTVSWNSGALTSGVHTFPAVLQSSGLYSLSSVVTVPSSSLGTQTYICNVNHKPSNTKVDKKVEPKSCDKTHT
# light: DVQITQSPSSLSASLGERATINCRASKSINKYLAWYQQKPGKAPKLLIYSGSTLQSGIPARFSGSGSGTDFTLTISSLEPEDFAMYYCQQHNEYPLTFGQGTKLEIKRTVAAPSVFIFPPSDEQLKSGTASVVCLLNNFYPREAKVQWKVDNALQSGNSQESVTEQDSKDSTYSLSSTLTLSKADYEKHKVYACEVTHQGLSSPVTKSFNRGEC
# notes: The heavy chain is truncated after the first heavy chain constant domain of IgG1; also called anti-C1q monovalent Fab; anti-C1q Fab
# What was measured:
# [1] = molecular target: T1, human complement factor C1q (chains A, B and C) (human, UniProt P02745 23-245; P02746 28-253; P02747 29-245); experiment: method not stated; affinity stated in the description
# T1 construct: In the assays C1q was the native protein in normal human serum or plasma; also called Human C1q
# [2] = molecular target: T1, human complement factor C1q (chains A, …); experiment: cell-based or functional assay
# T1 sequence (P02745 23-245 limits assumed, chain 1 of 3): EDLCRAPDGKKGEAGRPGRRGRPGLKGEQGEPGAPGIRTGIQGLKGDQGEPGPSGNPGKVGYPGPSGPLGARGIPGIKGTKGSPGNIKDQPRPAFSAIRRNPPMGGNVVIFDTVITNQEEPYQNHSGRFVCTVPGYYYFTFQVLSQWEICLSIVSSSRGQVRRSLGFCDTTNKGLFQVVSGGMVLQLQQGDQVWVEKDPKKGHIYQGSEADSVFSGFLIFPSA
# T1 sequence (P02746 28-253 limits assumed, chain 2 of 3): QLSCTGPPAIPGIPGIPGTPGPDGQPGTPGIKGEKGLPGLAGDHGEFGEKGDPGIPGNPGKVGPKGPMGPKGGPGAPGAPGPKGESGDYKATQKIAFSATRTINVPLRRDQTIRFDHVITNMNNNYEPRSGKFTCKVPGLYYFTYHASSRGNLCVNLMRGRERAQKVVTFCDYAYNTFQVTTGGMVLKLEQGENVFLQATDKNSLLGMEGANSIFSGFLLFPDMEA
# T1 sequence (P02747 29-245 limits assumed, chain 3 of 3): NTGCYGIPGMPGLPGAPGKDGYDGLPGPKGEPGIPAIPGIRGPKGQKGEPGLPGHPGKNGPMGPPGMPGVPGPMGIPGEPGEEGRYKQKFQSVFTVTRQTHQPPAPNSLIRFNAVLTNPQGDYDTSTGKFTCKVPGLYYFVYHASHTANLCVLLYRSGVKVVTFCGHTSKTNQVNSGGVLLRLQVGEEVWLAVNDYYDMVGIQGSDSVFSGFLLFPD
binder,measurement,setting,value
B1,Kd,[1],0.01 nM
same,IC50 for inhibition of hemolysis of CAD-sensitized human RBCs in normal human serum,[2],~10 nM
same,IC50 of inhibition of C4 and C3d deposition on human RBCs (flow cytometry),[2],~10 nM
